The values below come from patent publication US20180119149.

Read-outs that look alike come from different tables or passages of the source.

Data set [1] deals with HER2 (ErbB2) (Homo sapiens) (UniProt P04626).
The target in data set [2] is ubiquitin (UniProt P0CG48). Particulars: bulk Kd, bead-based fluorescence.
The subject of data set [3] is IgE (Homo sapiens). Particulars: bulk Kd, bead-based fluorescence.
Data set [4] has as its target EGFR (UniProt P00533). Particulars: HER2 about 4 times higher.
For data set [5], the target named is T1, ErbB4 (HER4) (UniProt Q15303).
T1 sequence: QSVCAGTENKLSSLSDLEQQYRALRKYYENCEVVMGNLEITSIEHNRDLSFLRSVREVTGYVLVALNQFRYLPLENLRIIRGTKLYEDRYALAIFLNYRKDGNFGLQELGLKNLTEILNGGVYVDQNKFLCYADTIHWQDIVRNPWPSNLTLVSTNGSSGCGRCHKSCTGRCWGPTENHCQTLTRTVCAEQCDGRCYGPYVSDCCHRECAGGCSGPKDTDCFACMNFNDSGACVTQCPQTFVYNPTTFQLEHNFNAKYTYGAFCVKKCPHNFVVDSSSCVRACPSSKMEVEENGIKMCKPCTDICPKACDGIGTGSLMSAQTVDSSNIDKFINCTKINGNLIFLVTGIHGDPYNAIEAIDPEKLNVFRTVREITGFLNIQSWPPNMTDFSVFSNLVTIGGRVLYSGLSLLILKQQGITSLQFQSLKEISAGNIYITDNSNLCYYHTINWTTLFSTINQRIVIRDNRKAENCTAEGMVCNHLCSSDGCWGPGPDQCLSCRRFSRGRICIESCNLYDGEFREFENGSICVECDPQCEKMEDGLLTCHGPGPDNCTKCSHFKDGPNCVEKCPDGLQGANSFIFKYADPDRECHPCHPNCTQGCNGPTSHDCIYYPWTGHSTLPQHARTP
Particulars: HER2 about 4 times higher.

Data set [6] deals with ErbB3 (HER3) (UniProt P21860). Particulars: HER2 about 4 times higher.
Data set [7] concerns the target HER2 (ErbB2) (Homo sapiens) (UniProt P04626). Particulars: bulk Kd, with formaldehyde cross-linking; about 5-fold higher Kd without.
Data set [8] deals with PD-L1 (UniProt Q9NZQ7). Particulars: bulk Kd, bead-based fluorescence.
The target in data set [9] is PDGF-BB (Homo sapiens) (UniProt P01127). Particulars: bulk Kd, bead-based fluorescence.
Data set [10] addresses CTLA-4 (UniProt P16410). Particulars: bulk Kd, bead-based fluorescence.
For data set [11], the target named is PDGF-BB (Homo sapiens) (UniProt P01127). Particulars: unselected library on PDGF-BB beads, with formaldehyde cross-linking.

Chain of PDGF-BB (Homo sapiens) (P01127 82-190): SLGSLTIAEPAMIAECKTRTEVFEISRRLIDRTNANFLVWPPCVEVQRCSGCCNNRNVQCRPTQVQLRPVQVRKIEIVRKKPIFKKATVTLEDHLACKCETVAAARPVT
Chain of CTLA-4 (P16410 36-161): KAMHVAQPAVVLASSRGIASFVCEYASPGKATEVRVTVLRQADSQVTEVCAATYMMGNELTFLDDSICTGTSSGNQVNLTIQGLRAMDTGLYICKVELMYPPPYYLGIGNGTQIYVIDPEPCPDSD
Chain of PD-L1 (Q9NZQ7 19-238): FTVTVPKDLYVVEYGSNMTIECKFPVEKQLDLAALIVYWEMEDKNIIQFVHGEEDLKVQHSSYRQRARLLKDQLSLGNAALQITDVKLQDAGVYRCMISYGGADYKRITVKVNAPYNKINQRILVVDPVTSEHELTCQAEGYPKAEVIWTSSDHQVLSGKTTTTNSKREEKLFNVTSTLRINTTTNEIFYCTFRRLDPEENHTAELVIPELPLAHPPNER
Chain of ErbB3 (HER3) (P21860 20-643): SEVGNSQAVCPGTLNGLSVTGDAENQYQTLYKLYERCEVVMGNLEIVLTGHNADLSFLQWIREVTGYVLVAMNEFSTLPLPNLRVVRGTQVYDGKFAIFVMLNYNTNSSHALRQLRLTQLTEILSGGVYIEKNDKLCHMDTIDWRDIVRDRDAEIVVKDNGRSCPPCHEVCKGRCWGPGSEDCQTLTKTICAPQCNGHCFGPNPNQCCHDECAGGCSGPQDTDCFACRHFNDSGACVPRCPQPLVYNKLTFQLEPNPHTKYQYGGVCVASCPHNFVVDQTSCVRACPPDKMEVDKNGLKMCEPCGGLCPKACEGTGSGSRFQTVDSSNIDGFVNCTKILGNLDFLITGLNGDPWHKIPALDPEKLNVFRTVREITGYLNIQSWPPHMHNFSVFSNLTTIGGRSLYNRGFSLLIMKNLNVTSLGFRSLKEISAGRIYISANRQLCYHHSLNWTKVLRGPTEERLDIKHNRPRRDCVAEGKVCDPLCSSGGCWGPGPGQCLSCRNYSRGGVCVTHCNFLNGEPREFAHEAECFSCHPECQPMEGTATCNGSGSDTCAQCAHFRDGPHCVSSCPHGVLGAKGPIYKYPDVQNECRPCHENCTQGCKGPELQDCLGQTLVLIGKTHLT

In [1] (bulk Kd, with formaldehyde cross-linking), “AGCAGCACAGAGGTCAGATGNNNNNNNNNNNNNNNNNNNNNNNNNNNNNNNNNNNNNNNNCCTATGCGTGCTACCGTGAA [HER2 round 1 pool]” displayed a dissociation constant Kd of 22.1 nM. That is a double-digit nanomolar value.
In the case of “AGCAGCACAGAGGTCAGATGNNNNNNNNNNNNNNNNNNNNNNNNNNNNNNNNNNNNNNNNCCTATGCGTGCTACCGTGAA [ubiquitin round 3 pool]”, the equilibrium dissociation constant (Kd) in [2] was 11.9 nM.
Take “AGCAGCACAGAGGTCAGATGNNNNNNNNNNNNNNNNNNNNNNNNNNNNNNNNNNNNNNNNCCTATGCGTGCTACCGTGAA [IgE round 3 pool]”: in data set [3], the Kd was 8.4 nM.
In the case of “AGCAGCACAGAGGTCAGATGNNNNNNNNNNNNNNNNNNNNNNNNNNNNNNNNNNNNNNNNCCTATGCGTGCTACCGTGAA [HER2 round 3 pool]”, the binding signal (fraction of HER2 signal) in [4], in data set [5] and in [6] was 0.25 in each case. In data set [7], this sequence showed a Kd of 6.8 nM.
In the case of “AGCAGCACAGAGGTCAGATGNNNNNNNNNNNNNNNNNNNNNNNNNNNNNNNNNNNNNNNNCCTATGCGTGCTACCGTGAA [PD-L1 round 3 pool]”, the Kd in data set [8] was 15.5 nM. This counts as double-digit nanomolar.
“AGCAGCACAGAGGTCAGATGNNNNNNNNNNNNNNNNNNNNNNNNNNNNNNNNNNNNNNNNCCTATGCGTGCTACCGTGAA [PDGF-BB round 3 pool]” had a Kd in data set [9] of 1.9 nM.
Sequence “AGCAGCACAGAGGTCAGATGNNNNNNNNNNNNNNNNNNNNNNNNNNNNNNNNNNNNNNNNCCTATGCGTGCTACCGTGAA [CTLA-4 round 3 pool]” displayed a Kd in data set [10] of 10.4 nM.
“AGCAGCACAGAGGTCAGATGNNNNNNNNNNNNNNNNNNNNNNNNNNNNNNNNNNNNNNNNCCTATGCGTGCTACCGTGAA [unselected ssDNA library (N40)]”: in data set [1] (no obvious binding), the Kd was more than 1000 nM. Moreover, the binding signal in [11] was less than 2 % bound.

By Kd is commonly meant a measure of binding affinity in units of concentration. Higher therefore signals weaker binding.
